According to patent US20250122304A1, “PRE-TARGETING” (Precirix N.V., priority 2022, published 2025):

How the values were obtained:
[1] = biological target: T1, human fibroblast activation protein (FAP) (human, UniProt Q12884 26-760); assay: BLI (Octet), kinetics to human FAP, post TCO conjugation
T1 construct: also called human FAP; hFAP
T1 sequence: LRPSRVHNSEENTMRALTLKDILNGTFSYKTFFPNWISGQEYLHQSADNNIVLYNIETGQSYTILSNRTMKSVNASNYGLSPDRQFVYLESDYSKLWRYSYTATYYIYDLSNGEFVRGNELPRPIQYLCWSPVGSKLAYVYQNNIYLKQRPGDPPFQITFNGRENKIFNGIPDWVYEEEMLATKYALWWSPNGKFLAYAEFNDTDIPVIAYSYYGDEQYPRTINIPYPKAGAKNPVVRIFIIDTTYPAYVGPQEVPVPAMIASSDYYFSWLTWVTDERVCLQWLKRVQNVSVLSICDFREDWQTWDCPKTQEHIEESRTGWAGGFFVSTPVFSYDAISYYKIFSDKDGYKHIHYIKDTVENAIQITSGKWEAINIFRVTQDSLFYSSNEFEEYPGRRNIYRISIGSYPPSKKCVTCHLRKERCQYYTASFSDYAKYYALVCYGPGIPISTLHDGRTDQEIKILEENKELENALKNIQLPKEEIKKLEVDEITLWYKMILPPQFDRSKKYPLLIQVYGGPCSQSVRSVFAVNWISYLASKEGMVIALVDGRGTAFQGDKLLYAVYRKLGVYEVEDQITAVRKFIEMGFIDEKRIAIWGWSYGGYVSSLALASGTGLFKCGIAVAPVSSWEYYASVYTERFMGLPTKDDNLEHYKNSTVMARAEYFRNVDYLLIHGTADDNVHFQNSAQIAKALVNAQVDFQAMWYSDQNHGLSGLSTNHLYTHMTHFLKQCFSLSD
Method: Using the BLI technology on Octet system the binding kinetics towards human FAP were determined for each of the five VHHs pre- and post-TCO conjugation.

human FAP = biological target: T2, human FAP (Homo sapiens, UniProt Q12884); assay: BLI click reaction with Tz-R3B23 on TCO-VHHs bound to target, span (Example 7, Table 18); settings: signal difference vs assay buffer
T2 sequence (Q12884 1-760): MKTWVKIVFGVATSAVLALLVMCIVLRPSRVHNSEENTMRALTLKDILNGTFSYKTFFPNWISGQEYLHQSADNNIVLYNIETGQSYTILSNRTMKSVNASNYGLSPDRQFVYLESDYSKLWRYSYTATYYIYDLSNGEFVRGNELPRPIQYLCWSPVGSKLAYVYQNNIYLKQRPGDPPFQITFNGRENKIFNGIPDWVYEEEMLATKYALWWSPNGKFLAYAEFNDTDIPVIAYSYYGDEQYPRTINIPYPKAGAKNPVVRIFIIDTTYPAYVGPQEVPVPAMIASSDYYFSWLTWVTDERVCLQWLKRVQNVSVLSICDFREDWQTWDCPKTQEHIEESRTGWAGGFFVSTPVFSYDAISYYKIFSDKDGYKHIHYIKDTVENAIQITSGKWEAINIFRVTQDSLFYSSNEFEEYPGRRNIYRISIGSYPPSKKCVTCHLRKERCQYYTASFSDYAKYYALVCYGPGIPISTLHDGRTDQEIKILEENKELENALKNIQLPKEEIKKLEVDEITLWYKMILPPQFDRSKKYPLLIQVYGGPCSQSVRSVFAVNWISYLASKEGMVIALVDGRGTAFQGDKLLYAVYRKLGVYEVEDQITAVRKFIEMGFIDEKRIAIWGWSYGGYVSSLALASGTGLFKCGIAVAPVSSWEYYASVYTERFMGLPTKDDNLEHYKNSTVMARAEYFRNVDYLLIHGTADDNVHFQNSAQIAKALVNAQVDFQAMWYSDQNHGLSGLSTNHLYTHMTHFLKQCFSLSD
Method: Next, Octet Streptavidin (SA) Biosensors were coated with 5 μg/mL biotinylated human FAP in assay buffer (HBS+0.5% BSA+0.1% Tween20) for 5 minutes. The sensors were then dipped in wells containing a 5 nM solution of the different VHHs (both TCO conjugated and unconjugated as control) for 20 minutes (association step) and further transferred to the assay buffer (dissociation step) for 30 minutes. After the dissociation phase, that simulates the lag time, the sensors were transferred to either a well containing 50 nM of a tetrazine-coupled, non-FAP binding R3B23 (Tz-R3B23) or to a well containing assay buffer as a control. This reaction was allowed to proceed for 20 minutes (experiment 1) or 30 minutes (experiment 2) after which the sensors were washed for 30 minutes in assay buffer. In the second experiment the TCO-VHHs were measured in duplicate (referred to as assay 1 and 2 of ‘experiment 2’ in the table below). Using the epitope binning function of ‘Octet Analysis Software’ we then determined the difference in signal between the VHHs incubated with Tz-R3B23 and the VHHs incubated with assay buffer. […] The span of unconjugated VHHs was considered as noise.

[2] = biological target: T3, human folate receptor alpha (FOLR1) (human, UniProt P15328 25-234, limits assumed); assay: SPR (Biacore), kinetics to hFOLR1, pre TCO conjugation
T3 construct: also called hFOLR1; human FOLR1
T3 sequence (P15328 25-234 limits assumed): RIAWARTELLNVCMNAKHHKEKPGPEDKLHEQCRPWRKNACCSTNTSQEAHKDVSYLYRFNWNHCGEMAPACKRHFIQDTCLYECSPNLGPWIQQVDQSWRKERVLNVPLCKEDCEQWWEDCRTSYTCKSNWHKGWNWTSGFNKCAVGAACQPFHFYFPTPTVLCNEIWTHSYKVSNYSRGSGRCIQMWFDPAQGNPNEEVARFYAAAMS

[3] = biological target: T3, human folate receptor alpha (FOLR1); assay: SPR (Biacore), kinetics to hFOLR1, post TCO conjugation
hFOLR1 [4] = biological target: T4, hFOLR1 (Homo sapiens, UniProt P15328); assay: SPR (Biacore) binding kinetics before and after TCO conjugation (Example 8, Table 19)
T4 sequence (P15328 25-234): as the sequence (P15328 25-234 limits assumed) above
Source text: Using Surface Plasmon Resonance (Biacore) we determined the binding kinetics of the unconjugated and TCO-conjugated VHH (TCO-VHH) for the respective target as described earlier for VHH2 and VHH8 (EP3718574A1).

hFOLR1 [5] = biological target: T4, hFOLR1; assay: SPR click reaction with Tz-R3B23, span of relative response (Example 8, Table 20); settings: Biacore
Method: Next, the click reaction was verified using SPR. 5 μg/mL recombinant hHER2 in 10 mM NaOAc pH 4.5 or 5 μg/mL recombinant hFOLR1 in 10 mM NaOAc pH 5.5 was immobilized on a Biacore Sensor Chip CM5 to a target level of 740 Response Units (RU) and 250 RU, respectively. […] For the VHH7 binding FOLR1 a VHH concentration of 5 nM was used, and the association and dissociation phases took 450 s and 900 s, respectively. […] As a negative control for the click reaction, we injected assay buffer (HBS) instead of the Tz-R3B23 over the flow cell. Using the Biacore evaluation software we determined the difference between the relative response before and after the click reaction with either the Tz-R3B23 or the negative control assay buffer. This difference is further on referred to as span.

B1: TCO-VHH6 (VHH)
VHH: DVQLVESGGGLVQAGGSLRLSCAVSGSISSANSMGWYRQAPGKQRDVVAGLTTGGRSHYADSVKGRFTISRDNAKNTVYLQMNSLKAEDTAVYYCNLWPPVQGYWGQGTQVTVSS
modifications: trans-cyclooctene (TCO) conjugated via TCO-NHS; site(s) and number not stated
notes: also called TCO conjugated VHH6; VHH6 post conjugation
Kd [1]: 0.147 nM | koff [1]: 0.000157 s⁻¹ | kon [1]: 1.07e+06 M⁻¹ s⁻¹ | Span (human FAP; Experiment 1, click reaction with 50 nM Tz-R3B23 for 20 minutes): 0.0230 | Span (human FAP; Experiment 2, 1st assay, click reaction with 50 nM Tz-R3B23 for 30 minutes): 0.0287 | Span (human FAP; Experiment 2, 2nd assay, click reaction with 50 nM Tz-R3B23 for 30 minutes): 0.0229

B2: TCO-VHH7 (VHH)
VHH: QVQLQESGGGLVQAGGSLRLSCTASGTFSGRNAMAWYRQAPGKRRELVAGIRSDDSTNYVDSVKGRFTISRDNAKNTVYLQMNSLRPEDTAVYYCNLWPPVIGAGFGSWGQGTQVTVSS
modifications: trans-cyclooctene (TCO) conjugated via TCO-NHS; site(s) and number not stated
notes: also called TCO conjugated VHH7; VHH7 post conjugation
Kd [1]: 0.166 nM | koff [1]: 0.000123 s⁻¹ | kon [1]: 746000 M⁻¹ s⁻¹

B3: TCO-VHH8 (VHH)
VHH: QVQLQESGGGTVQPGGSLRLSCAASGISVSIASMAWYRQAPGKQRELVAGIISGGSTNYADSVKGRFTISRDNAKKVVLLQMNSLKPEDTAVYYCNTYPPFVGPGATATWGQGTQVTVSS
modifications: trans-cyclooctene (TCO) conjugated via TCO-NHS; site(s) and number not stated
notes: also called TCO conjugated VHH8; VHH8 post conjugation
Kd [1]: 0.671 nM | koff [1]: 0.000559 s⁻¹ | kon [1]: 833000 M⁻¹ s⁻¹

B4: TCO-VHH9 (VHH)
VHH: QVQLQESGGGLVQSGGSLRLSCVASGSISSINAMGWYRQAPGNKREWVAGITSGGSTNYADAVLGRFSIFRDNPKNTVYLQMNSLKPEDTAVYYCNTWPPSTFGSWGQGTQVTVSS
modifications: trans-cyclooctene (TCO) conjugated via TCO-NHS; site(s) and number not stated
notes: also called TCO conjugated VHH9; VHH9 post conjugation
Kd [1]: 0.951 nM | koff [1]: 0.0012 s⁻¹ | kon [1]: 1.26e+06 M⁻¹ s⁻¹

B5: VHH2 (VHH)
VHH: DVQLVESGGGLVQPGGSLRLSCAASESIFSRNHMSWYRQAPGKQRELAAIITSDGNTNYPDSVKGRFTISRDNAKNTVYLQMNSLKPEDTAVYYCNTFGRSVAGFYDYWGQGTQVTVSS
notes: Anti-FOLR1 VHH, tested before TCO conjugation; also called VHH VHH2; unconjugated VHH2
Kd [2]: 0.047 nM | koff [2]: 0.000167 s⁻¹ | kon [2]: 3.54e+06 M⁻¹ s⁻¹

B6: TCO-VHH2 (VHH)
VHH: B5 VHH
modifications: trans-cyclooctene (TCO) conjugated via NHS-TCO; site(s) and number not stated
notes: also called TCO-conjugated VHH2; VHH2 post conjugation
Kd [3]: 0.0734 nM | koff [3]: 0.000192 s⁻¹ | kon [3]: 2.61e+06 M⁻¹ s⁻¹

B7: TCO-VHH1 (VHH)
VHH: DVQLVESGGGLVQPGGSLRLSCVASGRLSSSNSMAWYRQVPGKRRELVAGITGGGETNYADFVGGRFTISRDNAKNGLYLQLNGLKPEDTAAYYCNFWPPLINYWGQGTQVTVSS
modifications: trans-cyclooctene (TCO) conjugated via TCO-NHS; site(s) and number not stated
notes: also called TCO conjugated VHH1; VHH1 post conjugation
Kd [1]: 0.0719 nM | koff [1]: 4.99e-05 s⁻¹ | kon [1]: 694000 M⁻¹ s⁻¹

B8: VHH2: VHH, target FOLR1, SEQ ID NO 21 (protein)
VHH: B5 VHH
modifications: Full length sequence of VHH2
binding kinetics after TCO conjugation (hFOLR1 [4]): barely affected | koff (hFOLR1 [4]; Post conjugation (TCO)): 0.000192 s⁻¹ | kon (hFOLR1 [4]; Post conjugation (TCO)): 2.61e+06 M⁻¹ s⁻¹ | koff (hFOLR1 [4]; Pre conjugation): 0.000167 s⁻¹ | kon (hFOLR1 [4]; Pre conjugation): 3.54e+06 M⁻¹ s⁻¹ | Span of the Relative Response (hFOLR1 [5]; TCO-VHH bound on hFOLR1, Tz-R3B23 at 100 times molar excess): 12.3 RU | Span of the Relative Response (hFOLR1 [5]; Unconjugated VHH bound on hFOLR1, Tz-R3B23 at 100 times molar excess): 0.6 RU
